Changes are numbered by the printed parent chain.
B1: Mutation 1 (antibody, V domains shown)
VH: QVQLQQPGAELVKPGASVRLSCQTSVDTFSTYYIYWVKQRPGEGLEWIGGVNPTSNPVFNEKFKSKATLTVDTSSSTAYMQLSSLTSVDSAVYYCTRSILRRGYYFDYWGQGTALTVSS
VL: DIQMTQTTSSLSASLGDRVTISCRASQDIQNYVNWYQQKPDGTIKLLIYYTSRLQSGIPSRFSGSGSGTDYSLTIANLEQEDIATYFCQQDDTIPVTFGAGTKVELKR
notes: also called mutation 1 antibody
B2: Anti-Taq 2C7 recombinant antibody (WT) (antibody, mouse IgG1, kappa, V domains shown)
VH: B1 VH with I34L, N60D, F106P
VL: B1 VL with A25G, Y50F, F98W
notes: Mouse antibody expressed in CHO cells; also called WT antibody; antibody of sample 1
B3: Mutation 3 (antibody)
heavy: QVQLQQPGAELVKPGASVRLSCQTSVDTFSTYYAYWVKQRPGEGLEWIGGVNPTSNPVFDEKFKSKATLTVDTSSSTAYMQLSSLTSVDSAVYYCTRSILRRGYYQDYWGQGTALTVSSAKTTPPSVYPLAPGSAAQTNSMVTLGCLVKGYFPEPVTVTWNSGSLSSGVHTFPAVLQSDLYTLSSSVTVPSSTWPSETVTCNVAHPASSTKVDKKIVPRDCGCKPCICTVPEVSSVFIFPPKPKDVLTITLTPKVTCVVVDISKDDPEVQFSWFVDDVEVHTAQTQPREEQFNSTFRSVSELPIMHQDWLNGKEFKCRVNSAAFPAPIEKTISKTKGRPKAPQVYTIPPPKEQMAKDKVSLTCMITDFFPEDITVEWQWNGQPAENYKNTQPIMDTDGSYFVYSKLNVQKSNWEAGNTFTCSVLHEGLHNHHTEKSLSHSPGK
light: DIQMTQTTSSLSASLGDRVTISCRGSQDIQNYVNWYQQKPDGTIKLLIYYTSRLQSGIPSRFSGSGSGTDYSLTIANLEQEDIATYFCQQDDTIPVTYGAGTKVELKRADAAPTVSIFPPSSEQLTSGGASVVCFLNNFYPKDINVKWKIDGSERQNGVLNSWTDQDSKDSTYSMSSTLTLTKDEYERHNSYTCEATHKTSTSPIVKSFNRNEC
B4: Mutation 2 (antibody, V domains shown)
VH: B1 VH with F106P
VL: B1 VL with A25G, Y50F
B5: Mutation 4 (antibody)
heavy: B3 heavy with A34W, D60K, Q106E
light: B3 light with G25L, Y50S, Y98E
B6: Mutation 5 (antibody)
heavy: B3 heavy with A34S, D60Y, Q106K
light: B3 light with G25I, Y50P, Y98R
B7: WT 1-4 (antibody, V domains shown)
VH: QVQLQQPGAELVKPGASVRLSCQTSVNTFSTYYLYWVKQRPGEGLEWIGGINPTSGGPVFDEKFKSKATLTVDTSSSTAYMQLSSLTSVDSAVYYCTRSVVRRGYYPDYWGQGTALTVSS
VL: B1 VL with A25G, V33I, Y50F, Q55H, I58V, I94V, V96I, F98W
notes: WT background; CDRs built
B8: WT 1-7 (antibody, V domains shown)
VH: B1 VH with S30T, I34L, V51I, N60D, I99L, L100V, F106P
VL: B1 VL with A25G, Q30N, Y50F, Q55N, I58V, I94L, V96I, F98W
notes: WT background; CDRs built
B9: WT 1-8 (antibody, V domains shown)
VH: B1 VH with D27E, I34L, V51L, N60D, I99L, L100I, F106P
VL: B1 VL with A25G, V33L, Y50F, Q55N, I58L, I94L, V96L, F98W
notes: WT background; CDRs built
B10: WT 1-6 (antibody, V domains shown)
VH: B1 VH with I34L, N60D, I99L, F106P
VL: B1 VL with A25G, Y50F, Q55N, I94L, F98W
notes: WT background; CDRs built
B11: WT 1-2 (antibody, V domains shown)
VH: B1 VH with D27E, I34L, V51L, N60D, L100I, F106P
VL: B1 VL with A25G, V33L, Y50F, I58L, V96L, F98W
notes: WT background; CDRs built
B12: WT 1-3 (antibody, V domains shown)
VH: B7 VH with N27E, S30T, I51V, V101L
VL: B1 VL with A25G, Q30N, V33L, Y50F, Q55H, I94V, F98W
notes: WT background; CDRs built
B13: WT 1-5 (antibody, V domains shown)
VH: B7 VH with S30T, I51L, V101I
VL: B1 VL with A25G, Q30N, V33I, Y50F, Q55H, I58L, I94V, V96L, F98W
notes: WT background; CDRs built
B14: WT 1-9 (antibody, V domains shown)
VH: B7 VH with N27E, S30T, I51V, V100I, V101L
VL: B1 VL with A25G, Q30N, V33L, Y50F, F98W
notes: WT background; CDRs built
B15: WT 1-1 (antibody, V domains shown)
VH: B1 VH with S30T, I34L, V51I, N60D, L100V, F106P
VL: B1 VL with A25G, Q30N, Y50F, I58V, V96I, F98W
notes: WT background; CDRs built

target: T1, Taq DNA polymerase (Thermus aquaticus, UniProt P19821 1-832); test: AMC sensor, antibody immobilised
T1 construct: also called Taq enzyme; Taq DNA enzyme
T1 sequence (P19821 whole entry): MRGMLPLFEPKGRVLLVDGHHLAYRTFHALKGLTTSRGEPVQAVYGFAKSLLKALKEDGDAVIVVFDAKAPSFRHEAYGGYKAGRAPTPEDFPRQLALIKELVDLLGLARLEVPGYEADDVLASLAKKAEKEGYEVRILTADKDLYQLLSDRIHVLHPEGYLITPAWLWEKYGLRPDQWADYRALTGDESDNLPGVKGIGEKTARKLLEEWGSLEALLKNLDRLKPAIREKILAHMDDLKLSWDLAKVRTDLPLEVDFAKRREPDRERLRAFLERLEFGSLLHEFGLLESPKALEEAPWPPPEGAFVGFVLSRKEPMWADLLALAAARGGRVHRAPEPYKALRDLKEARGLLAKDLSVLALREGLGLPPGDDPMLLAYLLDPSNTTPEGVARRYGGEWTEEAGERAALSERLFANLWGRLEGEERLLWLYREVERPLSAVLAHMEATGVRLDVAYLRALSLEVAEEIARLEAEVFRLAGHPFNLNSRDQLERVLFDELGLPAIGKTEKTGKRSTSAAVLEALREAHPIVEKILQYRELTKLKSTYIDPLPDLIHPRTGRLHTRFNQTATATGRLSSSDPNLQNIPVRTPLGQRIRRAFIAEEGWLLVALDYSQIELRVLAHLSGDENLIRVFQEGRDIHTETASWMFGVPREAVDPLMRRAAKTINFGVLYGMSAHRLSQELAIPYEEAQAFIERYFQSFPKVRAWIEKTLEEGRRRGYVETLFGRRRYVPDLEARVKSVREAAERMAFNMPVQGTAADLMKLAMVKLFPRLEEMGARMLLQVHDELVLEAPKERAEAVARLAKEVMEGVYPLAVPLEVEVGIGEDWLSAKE

Kd	koff	kon	Binder
0.384 nM	3.78e-05 s⁻¹	98300 M⁻¹ s⁻¹	B1

target: T1, Taq DNA polymerase; test: AMC sensor, antibody immobilised; remark: another data set of the same source

Kd	koff	kon	Binder
2.46 nM	0.000145 s⁻¹	59000 M⁻¹ s⁻¹	B2
0.384 nM	3.78e-05 s⁻¹	98300 M⁻¹ s⁻¹	B1
20.7 nM	0.00135 s⁻¹	65500 M⁻¹ s⁻¹	B3
0.99 nM	5.87e-05 s⁻¹	59200 M⁻¹ s⁻¹	B4

target: T1, Taq DNA polymerase; test: ELISA on coated Taq, antibody 12.35 ng/ml
Protocol: (§1) The antibody activity was detected after mutation. Taq DNA enzyme was diluted with coating solution to the specified concentration, 100 μL per well overnight at 4° C.; which was washed twice with washing solution and patted dry on the next day; with addition of blocking solution (20% BSA+80% PBS), 120 μL per well at 37° C. for 1 h and patted dry; added the diluted Taq monoclonal antibodies, 100 μL/well at 37° C. for 30 min (partial supernatant for 1 h); washed 5 times with washing solution and patted dry; added goat anti-mouse IgG-HRP at 100 μL per well at 37° C. for 30 min; washed 5 times with washing solution and patted dry; added color developing solution A (50 μL/well), added color developing solution B (50 μL/well) for 10 min; added stop solution, 50 μL/well; followed by reading the OD value at 450 nm (reference 630 nm) on the microplate reader.

OD 450 nm	Binder
2.1 OD	B2
2.14 OD	B1
0.874 OD	B3
1.84 OD	B4
0.679 OD	B5
0.701 OD	B6

target: T1, Taq DNA polymerase; test: ELISA on coated Taq, antibody 1.37 ng/ml
Protocol: as §1

OD 450 nm	Binder
0.798 OD	B2
0.887 OD	B1
0.067 OD	B3
0.514 OD	B4
0.057 OD	B5
0.054 OD	B6

target: T1, Taq DNA polymerase; test: AMC sensor, antibody immobilised; remark: another data set of the same source

Kd	koff	kon	Binder
2.46 nM	0.000145 s⁻¹	59000 M⁻¹ s⁻¹	B2
4.1 nM	0.000362 s⁻¹	88400 M⁻¹ s⁻¹	B7
3.42 nM	0.000296 s⁻¹	86700 M⁻¹ s⁻¹	B8
3.02 nM	9.85e-05 s⁻¹	32600 M⁻¹ s⁻¹	B9
6.65 nM	0.000506 s⁻¹	76100 M⁻¹ s⁻¹	B10
3.41 nM	0.000166 s⁻¹	48500 M⁻¹ s⁻¹	B11
2.3 nM	0.00011 s⁻¹	48000 M⁻¹ s⁻¹	B12
5.13 nM	0.000314 s⁻¹	61200 M⁻¹ s⁻¹	B13
8.57 nM	0.000433 s⁻¹	50500 M⁻¹ s⁻¹	B14
4.65 nM	0.000273 s⁻¹	58800 M⁻¹ s⁻¹	B15

target: T1, Taq DNA polymerase; test: ELISA on coated Taq, antibody 0 ng/ml (blank)
Protocol: as §1

OD 450 nm	Binder
0.035 OD	B2
0.047 OD	B1
0.05 OD	B4

target: T1, Taq DNA polymerase; test: ELISA on coated Taq, antibody 0.46 ng/ml
Protocol: as §1

OD 450 nm	Binder
0.399 OD	B2
0.442 OD	B1
0.059 OD	B4

target: T1, Taq DNA polymerase; test: ELISA on coated Taq, antibody 37.04 ng/ml
Protocol: as §1

OD 450 nm	Binder
2.3 OD	B2
2.38 OD	B1
1.78 OD	B3
2.05 OD	B4
1.38 OD	B5
1.41 OD	B6

target: T1, Taq DNA polymerase; test: ELISA on coated Taq, antibody 4.12 ng/ml
Protocol: as §1

OD 450 nm	Binder
1.58 OD	B2
1.7 OD	B1
0.45 OD	B3
1 OD	B4
0.354 OD	B5
0.362 OD	B6

Source: US20210403601A1 (FAPON BIOTECH, published 2021)
